The source of these data is article PMC12103653 (2025).

This assay deals with Leukemia inhibitory factor (LIF), un-glycosylated recombinant protein (human, UniProt P15018 23-202). The assay can be described thus: SPR.
Chain of Leukemia inhibitory factor (LIF), un-glycosylated recombinant protein (P15018 23-202): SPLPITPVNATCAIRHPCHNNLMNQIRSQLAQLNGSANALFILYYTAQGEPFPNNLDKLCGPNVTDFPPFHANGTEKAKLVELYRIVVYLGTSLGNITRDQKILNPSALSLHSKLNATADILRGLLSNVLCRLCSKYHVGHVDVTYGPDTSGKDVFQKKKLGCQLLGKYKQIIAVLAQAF

B1: LIF receptor LIFR (receptor)
chain: QKKGAPHDLKCVTNNLQVWNCSWKAPSGTGRGTDYEVCIENRSRSCYQLEKTSIKIPALSHGDYEITINSLHDFGSSTSKFTLNEQNVSLIPDTPEILNLSADFSTSTLYLKWNDRGSVFPHRSNVIWEIKVLRKESMELVKLVTHNTTLNGKDTLHHWSWASDMPLECAIHFVEIRCYIDNLHFSGLEEWSDWSPVKNISWIPDSQTKVFPQDKVILVGSDITFCCVSQEKVLSALIGHTNCPLIHLDGENVAIKIRNISVSASSGTNVVFTTEDNIFGTVIFAGYPPDTPQQLNCETHDLKEIICSWNPGRVTALVGPRATSYTLVESFSGKYVRLKRAEAPTNESYQLLFQMLPNQEIYNFTLNAHNPLGRSQSTILVNITEKVYPHTPTSFKVKDINSTAVKLSWHLPGNFAKINFLCEIEIKKSNSVQEQRNVTIKGVENSSYLVALDKLNPYTLYTFRIRCSTETFWKWSKWSNKKQHLTTEASPSKGPDTWREWSSDGKNLIIYWKPLPINEANGKILSYNVSCSSDEETQSLSEIPDPQHKAEIRLDKNDYIISVVAKNSVGSSPPSKIASMEIPNDDLKIEQVVGMGKGILLTWHYDPNMTCDYVIKWCNSSRSEPCLMDWRKVPSNSTETVIESDEFRPGIRYNFFLYGCRNQGYQLLRSMIGYIEELAPIVAPNFTVEDTSADSILVKWEDIPVEELRGFLRGYLFYFGKGERDTSKMRVLESGRSDIKVKNITDISQKTLRIADLQGKTSYHLVLRAYTDGGVGPEKSMYVVTKENS
By Kd is commonly meant the equilibrium constant for the complex coming apart. Consider B1, for which the Kd came to 6.31 µM.
